Data published in the Immune Epitope Database (IEDB).

Legend:
[1] = biological target: HLA-B*58:01; experiment: IEDB peptide-MHC binding, purified MHC/direct/fluorescence; filed as Kd, often an IC50 or EC50 that approximates it; ≥ and ≤ were set here for values at or beyond the usual limits of such assays; details: source organism: Escherichia coli
[2] = biological target: HLA-A*03:01; experiment: as above; details: source organism: Escherichia coli
[3] = biological target: HLA-B*08:01; experiment: as above; details: source organism: Escherichia coli
[4] = biological target: HLA-A*01:01; experiment: as above; details: source organism: Escherichia coli
[5] = biological target: HLA-B*15:01; experiment: as above
[6] = biological target: HLA-A*26:01; experiment: as above; details: source organism: Escherichia coli
[7] = biological target: HLA-A*02:01; experiment: as above
[8] = biological target: HLA-B*27:05; experiment: as above; details: source organism: Escherichia coli
[9] = biological target: HLA-B*07:02; experiment: as above
[10] = biological target: HLA-A*11:01; experiment: as above; details: source organism: Escherichia coli
[11] = biological target: HLA-A*31:01; experiment: as above; details: source organism: Escherichia coli
[12] = biological target: HLA-B*40:01; experiment: as above; details: source organism: Escherichia coli
[13] = biological target: HLA-A*30:01; experiment: as above; details: source organism: Escherichia coli
[14] = biological target: HLA-A*69:01; experiment: as above
[15] = biological target: HLA-B*73:01; experiment: IEDB peptide-MHC binding, purified MHC/competitive/fluorescence; filed as Kd, often an IC50 or EC50 that approximates it; ≥ and ≤ were set here for values at or beyond the usual limits of such assays; details: source organism: Escherichia coli str. K-12 substr. MG1655
[16] = biological target: HLA-B*27:05; experiment: IEDB peptide-MHC binding, purified MHC/competitive/fluorescence; ≥ and ≤ were set here for values at or beyond the usual limits of such assays; details: source organism: hepatitis C virus genotype 1a
[17] = biological target: HLA-B*48:01; experiment: IEDB peptide-MHC binding, purified MHC/competitive/fluorescence; filed as Kd, often an IC50 or EC50 that approximates it; ≥ and ≤ were set here for values at or beyond the usual limits of such assays; details: source organism: Vibrio vulnificus YJ016
[18] = biological target: HLA-C*15:02; experiment: IEDB peptide-MHC binding, purified MHC/direct/fluorescence; filed as Kd, often an IC50 or EC50 that approximates it; ≥ and ≤ were set here for values at or beyond the usual limits of such assays
[19] = biological target: HLA-C*12:03; experiment: as above
[20] = biological target: HLA-A*29:02; experiment: IEDB peptide-MHC binding, purified MHC/competitive/fluorescence; filed as Kd, often an IC50 or EC50 that approximates it; ≥ and ≤ were set here for values at or beyond the usual limits of such assays
[21] = biological target: HLA-B*45:06; experiment: as above
[22] = biological target: HLA-B*40:13; experiment: as above
[23] = biological target: HLA-A*32:15; experiment: as above; details: source organism: Salmonella enterica subsp. arizonae serovar 62:z4,z23:-
[24] = biological target: HLA-B*15:42; experiment: as above
[25] = biological target: HLA-B*83:01; experiment: as above
[26] = biological target: HLA-C*14:02; experiment: as above
[27] = biological target: HLA-A*68:23; experiment: as above
[28] = biological target: HLA-C*07:02; experiment: IEDB peptide-MHC binding, purified MHC/direct/fluorescence; filed as Kd, often an IC50 or EC50 that approximates it; ≥ and ≤ were set here for values at or beyond the usual limits of such assays
[29] = biological target: HLA-C*06:02; experiment: as above
[30] = biological target: HLA-A*01:01; experiment: IEDB peptide-MHC binding, purified MHC/competitive/fluorescence; filed as Kd, often an IC50 or EC50 that approximates it; ≥ and ≤ were set here for values at or beyond the usual limits of such assays; details: source organism: Homo sapiens
[31] = biological target: HLA-C*04:01; experiment: as above; details: source organism: Homo sapiens
[32] = biological target: HLA-A*32:07; experiment: as above; details: source organism: Cryptosporidium parvum Iowa II
[33] = biological target: HLA-B*27:20; experiment: as above
[34] = biological target: HLA-B*46:01; experiment: IEDB peptide-MHC binding, cellular MHC/competitive/fluorescence; ≥ and ≤ were set here for values at or beyond the usual limits of such assays; details: source organism: Human herpesvirus 4 strain B95-8
[35] = biological target: HLA-B*51:01; experiment: IEDB peptide-MHC binding, purified MHC/direct/fluorescence; filed as Kd, often an IC50 or EC50 that approximates it; ≥ and ≤ were set here for values at or beyond the usual limits of such assays; details: source organism: Salmonella enterica
[36] = biological target: HLA-B*46:01; experiment: IEDB peptide-MHC binding, purified MHC/competitive/fluorescence; filed as Kd, often an IC50 or EC50 that approximates it; ≥ and ≤ were set here for values at or beyond the usual limits of such assays; details: source organism: Salmonella enterica subsp. enterica serovar Typhi
[37] = biological target: HLA-C*06:02; experiment: as above; details: source organism: Homo sapiens
[38] = source organism: Escherichia coli
[39] = source organism: Salmonella enterica subsp. arizonae serovar 62:z4,z23:-
[40] = source organism: Cryptosporidium parvum Iowa II
[41] = source organism: Cryptosporidium parvum
[42] = source organism: Salmonella enterica subsp. enterica serovar Typhi str. CT18
[43] = source organism: Salmonella enterica subsp. enterica serovar Typhi

Q: Which results are given for RRRIGEIFK?
A: Kd [1]: ≥ 20000 nM; Kd [2]: ≥ 20000 nM; Kd [3]: ≥ 20000 nM; Kd [4]: ≥ 20000 nM; Kd [5, 38]: ≥ 20000 nM; Kd [6]: ≥ 20000 nM; Kd [7, 38]: ≥ 20000 nM; Kd [8]: 64.2 nM; Kd [9, 38]: ≥ 20000 nM; Kd [10]: ≥ 20000 nM; Kd [11]: ≥ 20000 nM; Kd [12]: ≥ 20000 nM; Kd [13]: 5.86 nM; Kd [14, 38]: ≥ 20000 nM; Kd [15]: ≥ 20000 nM

Q: How did the IC50 [16] turn out when GGATICGKY was run?
A: ≥ 750000 nM

Q: DEHPWQPML was tested. Which Kd [17] did it give?
A: ≥ 20000 nM

Q: What does the source list for YTIYGAWMF?
A: Kd [18, 39]: 1730 nM; Kd [19, 39]: 1200 nM; Kd [20, 39]: 0.6 nM; Kd [21, 39]: ≥ 5000 nM; Kd [22, 39]: 397 nM; Kd [23]: 79.6 nM; Kd [24, 39]: ≥ 5000 nM; Kd [25, 39]: ≥ 5000 nM; Kd [26, 39]: 347 nM; Kd [27, 39]: 0.6 nM

Q: Which Kd ([28]; source organism: Homo sapiens) does the source give for YYWPRPRRY here?
A: ≤ 1 nM

Q: And the Kd ([29]; source organism: Homo sapiens)?
A: 14 nM

Q: What about the Kd ([19]; source organism: Homo sapiens) of the same sequence?
A: 283 nM

Q: What about the Kd ([20]; source organism: Homo sapiens) of the same sequence?
A: ≤ 0.1 nM

Q: What about the Kd ([21]; source organism: Homo sapiens) of the same sequence?
A: ≥ 5000 nM

Q: And the Kd [30]?
A: ≥ 20000 nM

Q: And the Kd [31]?
A: ≥ 5000 nM

Q: And the Kd ([24]; source organism: Homo sapiens)?
A: ≥ 5000 nM

Q: And the Kd ([25]; source organism: Homo sapiens)?
A: ≥ 5000 nM

Q: For MQFPGSVGF, which Kd [28, 40] is on record?
A: 429 nM

Q: What about the Kd [7, 41] of the same sequence?
A: 769 nM

Q: And the Kd [14, 41]?
A: 3640 nM

Q: And the Kd [21, 40]?
A: ≥ 5000 nM

Q: And the Kd [22, 40]?
A: 0.9 nM

Q: And the Kd [32]?
A: 1.2 nM

Q: What about the Kd [33, 40] of the same sequence?
A: 0.8 nM

Q: And the Kd [24, 40]?
A: ≥ 5000 nM

Q: And the Kd [25, 40]?
A: ≥ 5000 nM

Q: And the Kd [27, 40]?
A: 42.4 nM

Q: Which IC50 [34] does the source give for FTYPVLEEM here?
A: 10000 nM

Q: Which results are given for YLRNAGAAM?
A: Kd ([5]; source organism: Salmonella enterica subsp. enterica serovar Typhimurium str. LT2): 31 nM; Kd [18, 42]: 3590 nM; Kd [29, 42]: 3620 nM; Kd [35]: ≥ 20000 nM; Kd ([9]; source organism: Salmonella enterica): 1.3 nM; Kd [21, 43]: ≥ 5000 nM; Kd [33, 43]: 186 nM; Kd [24, 43]: ≥ 5000 nM; Kd [25, 43]: ≥ 5000 nM; Kd [26, 43]: 3.6 nM; Kd [36]: 54.7 nM

Q: What does the source list for VMAPRTLIL?
A: Kd ([19]; source organism: Homo sapiens): 397 nM; Kd ([21]; source organism: Homo sapiens): ≥ 5000 nM; Kd [37]: 3790 nM; Kd ([24]; source organism: Homo sapiens): ≥ 5000 nM; Kd ([25]; source organism: Homo sapiens): ≥ 5000 nM; Kd ([26]; source organism: Homo sapiens): 208 nM
